Results from patent publication US20180022781A1 (INSERM INSTITUT NATIONAL DE LA SANTE ET DE LA RECHERCHE …, published 2018).

Legend:
[1] = target: S. pombe AC40 (AC40sp) (Schizosaccharomyces pombe) (UniProt O94616); experiment: cell-based or functional assay
[2] = target: AC40 subunit of RNA polymerase III, P07703
[3] = target: S. pombe AC40 (AC40sp), O94616

Chain of AC40 subunit of RNA polymerase III, P07703 (P07703 whole entry, looked up, tested part not stated): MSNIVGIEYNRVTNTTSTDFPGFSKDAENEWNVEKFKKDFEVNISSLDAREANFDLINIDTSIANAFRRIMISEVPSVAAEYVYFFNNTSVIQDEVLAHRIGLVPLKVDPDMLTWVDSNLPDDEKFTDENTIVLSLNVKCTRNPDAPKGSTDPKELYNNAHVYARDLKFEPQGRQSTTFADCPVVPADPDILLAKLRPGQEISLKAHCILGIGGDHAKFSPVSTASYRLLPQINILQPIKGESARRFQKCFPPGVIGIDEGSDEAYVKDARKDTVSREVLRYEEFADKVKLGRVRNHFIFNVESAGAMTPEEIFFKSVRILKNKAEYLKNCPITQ

“Ty1 integrase (IN) expressed from a functional Ty1 element (from UniProt P0C2I7 583-1217) (enzyme)” gave a fraction of 5FOA^R cells arising from Ty1 integration [1] of 30 fold lower.

B1: Ty1 integrase with S621 modified in A, expressed from a mutant Ty1 element (protein)
chain: NVHTSESTRKYPYPFIHRMLAHANAQTIRYSLKNNTITYFNESDVDWSSAIDYQCPDCLIGKSTKHRHIKGSRLKYQNSYEPFQYLHTDIFGPVHNLPNSAPSYFISFTDETTKFRWVYPLHDRREDSILDVFTTILAFIKNQFQASVLVIQMDRGSEYTNRTLHKFLEKNGITPCYTTTADSRAHGVAERLNRTLLDDCRTQLQCSGLPNHLWFSAIEFSTIVRNSLASPKSKKSARQHAGLAGLDISTLLPFGQPVIVNDHNPNSKIHPRGIPGYALHPSRNSYGYIIYLPSLKKTVDTTNYVILQGKESRLDQFNYDALTFDEDLNRLTASYHSFIASNEIQESNDLNIESDHDFQSDIELHPEQPRNVLSKAVSPTDSTPPSTHTEDSKRVSKTNIRAPREVDPNISESNILPSKKRSSTPQISNIESTGSGGMHKLNVPLLAPMSQSNTHESSHASKSKDFRHSDSYSENETNHTNVPISSTGGTNNKTVPQISDQETEKRIIHRSPSIDASPPENNSSHNIVPIKTPTTVSEQNTEESIIADLPLPDLPPESPTEFPDPFKELPPINSRQTNSSLGGIGDSNAYTTINSKKRSLEDNETEIKVSRDTWNTKNMRALEPPRSKKRIHLIA
With B1 the “PCR detection of Ty1 insertion events upstream of tG(GCC)C” value (from here on “PCR detection”) [2] was “Ty1 integration upstream of a Pol III genes is severely affected in Ty1 mutants carrying mutations that abolish IN/AC40 interaction” and the “relative frequency of Ty1his3AI retrotransposition” value (from here on “relative frequency”) [2] was “Ty1 overall mobility decreases no more than two-fold in Ty1 mutants carrying mutations that abolish IN/AC40 interaction”.

B2: Ty1 integrase with L622 modified in A, expressed from a mutant Ty1 element (protein)
chain: NVHTSESTRKYPYPFIHRMLAHANAQTIRYSLKNNTITYFNESDVDWSSAIDYQCPDCLIGKSTKHRHIKGSRLKYQNSYEPFQYLHTDIFGPVHNLPNSAPSYFISFTDETTKFRWVYPLHDRREDSILDVFTTILAFIKNQFQASVLVIQMDRGSEYTNRTLHKFLEKNGITPCYTTTADSRAHGVAERLNRTLLDDCRTQLQCSGLPNHLWFSAIEFSTIVRNSLASPKSKKSARQHAGLAGLDISTLLPFGQPVIVNDHNPNSKIHPRGIPGYALHPSRNSYGYIIYLPSLKKTVDTTNYVILQGKESRLDQFNYDALTFDEDLNRLTASYHSFIASNEIQESNDLNIESDHDFQSDIELHPEQPRNVLSKAVSPTDSTPPSTHTEDSKRVSKTNIRAPREVDPNISESNILPSKKRSSTPQISNIESTGSGGMHKLNVPLLAPMSQSNTHESSHASKSKDFRHSDSYSENETNHTNVPISSTGGTNNKTVPQISDQETEKRIIHRSPSIDASPPENNSSHNIVPIKTPTTVSEQNTEESIIADLPLPDLPPESPTEFPDPFKELPPINSRQTNSSLGGIGDSNAYTTINSKKRSLEDNETEIKVSRDTWNTKNMRSAEPPRSKKRIHLIA
For B2, the “PCR detection” value [2] was “Ty1 integration upstream of a Pol III genes is severely affected in Ty1 mutants carrying mutations that abolish IN/AC40 interaction” and the “relative frequency” value [2] was “Ty1 overall mobility decreases no more than two-fold in Ty1 mutants carrying mutations that abolish IN/AC40 interaction”.

B3: Ty1 integrase with R619 [read as R620] modified in A, expressed from a mutant Ty1his3AI element (protein)
chain: NVHTSESTRKYPYPFIHRMLAHANAQTIRYSLKNNTITYFNESDVDWSSAIDYQCPDCLIGKSTKHRHIKGSRLKYQNSYEPFQYLHTDIFGPVHNLPNSAPSYFISFTDETTKFRWVYPLHDRREDSILDVFTTILAFIKNQFQASVLVIQMDRGSEYTNRTLHKFLEKNGITPCYTTTADSRAHGVAERLNRTLLDDCRTQLQCSGLPNHLWFSAIEFSTIVRNSLASPKSKKSARQHAGLAGLDISTLLPFGQPVIVNDHNPNSKIHPRGIPGYALHPSRNSYGYIIYLPSLKKTVDTTNYVILQGKESRLDQFNYDALTFDEDLNRLTASYHSFIASNEIQESNDLNIESDHDFQSDIELHPEQPRNVLSKAVSPTDSTPPSTHTEDSKRVSKTNIRAPREVDPNISESNILPSKKRSSTPQISNIESTGSGGMHKLNVPLLAPMSQSNTHESSHASKSKDFRHSDSYSENETNHTNVPISSTGGTNNKTVPQISDQETEKRIIHRSPSIDASPPENNSSHNIVPIKTPTTVSEQNTEESIIADLPLPDLPPESPTEFPDPFKELPPINSRQTNSSLGGIGDSNAYTTINSKKRSLEDNETEIKVSRDTWNTKNMASLEPPRSKKRIHLIA
For B3, the “relative frequency” value [2] was “Ty1 overall mobility decreases no more than two-fold in Ty1 mutants carrying mutations that abolish IN/AC40 interaction”.

B4: Ty1 integrase (IN) expressed from a functional Ty1 element (protein)
chain: NVHTSESTRKYPYPFIHRMLAHANAQTIRYSLKNNTITYFNESDVDWSSAIDYQCPDCLIGKSTKHRHIKGSRLKYQNSYEPFQYLHTDIFGPVHNLPNSAPSYFISFTDETTKFRWVYPLHDRREDSILDVFTTILAFIKNQFQASVLVIQMDRGSEYTNRTLHKFLEKNGITPCYTTTADSRAHGVAERLNRTLLDDCRTQLQCSGLPNHLWFSAIEFSTIVRNSLASPKSKKSARQHAGLAGLDISTLLPFGQPVIVNDHNPNSKIHPRGIPGYALHPSRNSYGYIIYLPSLKKTVDTTNYVILQGKESRLDQFNYDALTFDEDLNRLTASYHSFIASNEIQESNDLNIESDHDFQSDIELHPEQPRNVLSKAVSPTDSTPPSTHTEDSKRVSKTNIRAPREVDPNISESNILPSKKRSSTPQISNIESTGSGGMHKLNVPLLAPMSQSNTHESSHASKSKDFRHSDSYSENETNHTNVPISSTGGTNNKTVPQISDQETEKRIIHRSPSIDASPPENNSSHNIVPIKTPTTVSEQNTEESIIADLPLPDLPPESPTEFPDPFKELPPINSRQTNSSLGGIGDSNAYTTINSKKRSLEDNETEIKVSRDTWNTKNMRSLEPPRSKKRIHLIA
For B4, the “PCR pattern of Ty1 insertions upstream of tG(GCC)C” value [3] was “In cultures expressing AC40sp, the pattern was dramatically altered, showing both a significant decrease in Ty1 integration and an apparent relaxed periodicity between hotspots”, the “frequency of IN-dependent Ty1HIS3 integration in a rad52Δ mutant” value [3] was “the frequency of IN-dependent integration is 2-fold lower in AC40sp cells compared to AC40 cells” and the “genome-wide Ty1 integration profile” value [3] was “the loss-of-interaction mutant displayed a fundamentally different profile with only a slight bias to integrate near tRNA genes”.

B5: Ty1 integrase with K617 modified in A, expressed from a mutant Ty1 element (protein)
chain: NVHTSESTRKYPYPFIHRMLAHANAQTIRYSLKNNTITYFNESDVDWSSAIDYQCPDCLIGKSTKHRHIKGSRLKYQNSYEPFQYLHTDIFGPVHNLPNSAPSYFISFTDETTKFRWVYPLHDRREDSILDVFTTILAFIKNQFQASVLVIQMDRGSEYTNRTLHKFLEKNGITPCYTTTADSRAHGVAERLNRTLLDDCRTQLQCSGLPNHLWFSAIEFSTIVRNSLASPKSKKSARQHAGLAGLDISTLLPFGQPVIVNDHNPNSKIHPRGIPGYALHPSRNSYGYIIYLPSLKKTVDTTNYVILQGKESRLDQFNYDALTFDEDLNRLTASYHSFIASNEIQESNDLNIESDHDFQSDIELHPEQPRNVLSKAVSPTDSTPPSTHTEDSKRVSKTNIRAPREVDPNISESNILPSKKRSSTPQISNIESTGSGGMHKLNVPLLAPMSQSNTHESSHASKSKDFRHSDSYSENETNHTNVPISSTGGTNNKTVPQISDQETEKRIIHRSPSIDASPPENNSSHNIVPIKTPTTVSEQNTEESIIADLPLPDLPPESPTEFPDPFKELPPINSRQTNSSLGGIGDSNAYTTINSKKRSLEDNETEIKVSRDTWNTANMRSLEPPRSKKRIHLIA
B5 was tested, and the “PCR detection” value [2] was “The loss of this pattern was also obtained in mutants of Ty1 in which either of the K617 or M619 residues where modified in A (alanine)” and the “relative frequency” value [2] was “Ty1 overall mobility decreases no more than two-fold in Ty1 mutants carrying mutations that abolish IN/AC40 interaction”.

B6: Ty1 integrase with M619 modified in A, expressed from a mutant Ty1 element (protein)
chain: NVHTSESTRKYPYPFIHRMLAHANAQTIRYSLKNNTITYFNESDVDWSSAIDYQCPDCLIGKSTKHRHIKGSRLKYQNSYEPFQYLHTDIFGPVHNLPNSAPSYFISFTDETTKFRWVYPLHDRREDSILDVFTTILAFIKNQFQASVLVIQMDRGSEYTNRTLHKFLEKNGITPCYTTTADSRAHGVAERLNRTLLDDCRTQLQCSGLPNHLWFSAIEFSTIVRNSLASPKSKKSARQHAGLAGLDISTLLPFGQPVIVNDHNPNSKIHPRGIPGYALHPSRNSYGYIIYLPSLKKTVDTTNYVILQGKESRLDQFNYDALTFDEDLNRLTASYHSFIASNEIQESNDLNIESDHDFQSDIELHPEQPRNVLSKAVSPTDSTPPSTHTEDSKRVSKTNIRAPREVDPNISESNILPSKKRSSTPQISNIESTGSGGMHKLNVPLLAPMSQSNTHESSHASKSKDFRHSDSYSENETNHTNVPISSTGGTNNKTVPQISDQETEKRIIHRSPSIDASPPENNSSHNIVPIKTPTTVSEQNTEESIIADLPLPDLPPESPTEFPDPFKELPPINSRQTNSSLGGIGDSNAYTTINSKKRSLEDNETEIKVSRDTWNTKNARSLEPPRSKKRIHLIA
With B6 the “PCR detection” value [2] was “The loss of this pattern was also obtained in mutants of Ty1 in which either of the K617 or M619 residues where modified in A (alanine)” and the “relative frequency” value [2] was “Ty1 overall mobility decreases no more than two-fold in Ty1 mutants carrying mutations that abolish IN/AC40 interaction”.
